Values of other authors in paper PMC4286324.

Target: Nef (Human immunodeficiency virus 1) (UniProt P04324)

In the case of Hck SH3 (from UniProt P08631), the Kd is listed as 0.25 µM.
